The record followed here is PMC8213733, “Subtype-specific collaborative transcription factor networks are promoted by OCT4 in the progression of prostate cancer” (Nature Communications, 2021).

The experiment concerns the target T1, Flag-AR (human (cDNA of PC cells, said of the …, UniProt P10275 1-920)).
T1 construct: androgen receptor, full length in Flag-tagged pcDNA3.0; also called androgen receptor; source: 293T, transfected, cells treated with 10 nM DHT or vehicle, purified (Flag M2 agarose beads, glycine elution)
T1 sequence (looked up): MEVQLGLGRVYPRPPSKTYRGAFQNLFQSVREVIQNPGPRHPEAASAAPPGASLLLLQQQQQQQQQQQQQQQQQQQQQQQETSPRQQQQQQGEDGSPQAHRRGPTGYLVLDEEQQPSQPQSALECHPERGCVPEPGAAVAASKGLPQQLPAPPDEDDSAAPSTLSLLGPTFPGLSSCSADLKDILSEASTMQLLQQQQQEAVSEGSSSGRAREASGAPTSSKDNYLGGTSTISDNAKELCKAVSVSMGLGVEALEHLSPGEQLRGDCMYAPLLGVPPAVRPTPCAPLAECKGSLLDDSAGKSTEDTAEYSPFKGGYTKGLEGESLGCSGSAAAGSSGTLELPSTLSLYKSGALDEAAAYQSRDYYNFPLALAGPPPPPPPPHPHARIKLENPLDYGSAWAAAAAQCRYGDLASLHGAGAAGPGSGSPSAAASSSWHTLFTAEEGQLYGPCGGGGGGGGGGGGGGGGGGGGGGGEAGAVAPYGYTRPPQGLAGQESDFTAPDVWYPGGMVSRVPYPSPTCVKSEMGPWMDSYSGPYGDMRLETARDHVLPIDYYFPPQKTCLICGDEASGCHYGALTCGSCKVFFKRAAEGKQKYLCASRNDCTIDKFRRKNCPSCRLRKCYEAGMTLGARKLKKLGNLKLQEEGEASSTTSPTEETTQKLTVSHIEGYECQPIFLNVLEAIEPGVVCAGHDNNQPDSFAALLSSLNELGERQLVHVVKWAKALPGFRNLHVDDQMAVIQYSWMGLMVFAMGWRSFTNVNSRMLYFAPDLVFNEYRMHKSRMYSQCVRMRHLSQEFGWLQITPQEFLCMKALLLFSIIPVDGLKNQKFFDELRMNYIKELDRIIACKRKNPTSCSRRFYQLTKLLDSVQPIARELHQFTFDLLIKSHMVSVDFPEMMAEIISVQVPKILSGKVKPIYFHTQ
Briefly: co-IP; in vitro binding assay: purified proteins in 20 mM Tris-HCl pH 7.5, 150 mM NaCl, 0.1% Triton X-100, 1 mM DTT, 4 °C, 5 h; FOXA1 immunoprecipitated, bound proteins by western blot; with or without ribavirin-phosphate. The note with it: both partners purified.

B1: Flag-FOXA1 (natural protein, UniProt P55317 1-472, looked up)
chain: MLGTVKMEGHETSDWNSYYADTQEAYSSVPVSNMNSGLGSMNSMNTYMTMNTMTTSGNMTPASFNMSYANPGLGAGLSPGAVAGMPGGSAGAMNSMTAAGVTAMGTALSPSGMGAMGAQQAASMNGLGPYAAAMNPCMSPMAYAPSNLGRSRAGGGGDAKTFKRSYPHAKPPYSYISLITMAIQQAPSKMLTLSEIYQWIMDLFPYYRQNQQRWQNSIRHSLSFNDCFVKVARSPDKPGKGSYWTLHPDSGNMFENGCYLRRQKRFKCEKQPGAGGGGGSGSGGSGAKGGPESRKDPSGASNPSADSPLHRGVHGKTGQLEGAPAPGPAASPQTLDHSGATATGGASELKTPASSTAPPISSGPGALASVPASHPAHGLAPHESQLHLKGDPHYSFNHPFSINNLMSSSEQQHKLDFKAYEQALQYSPYGSTLPASLPLGSASVTTRSPIEPSALEPAYYQGVYSRPVLNTS
notes: FOXA1, full length in Flag-tagged pcDNA3.0; source: 293T, transfected, purified (Flag M2 agarose beads, glycine elution)
B1: the binding result was “binds”.
